Data: patent US20230149507A1, “TREATMENT OF ALT CANCERS” (INSTITUTO DE MEDICINA MOLECULAR JOÃO LOBO ANTUNES, priority 2019, published 2023)
Blank lines part the entries; values can stand above or below the compound they belong to.

Key:
HeLa cells = assay: FACS cell cycle analysis of FANCM-depleted HeLa cells with added agents; format: cell-based, human; settings: HeLa cells depleted for FANCM; 20 μM BIBR 1532 for 7 days
Procedure: When indicated, cells were incubated with 1 μM camptothecin (Sigma-Aldrich) for 3 hours, 0.2 mM hydroxyurea (Sigma-Aldrich) for 16 h, 20 μM BIBR 1532 (Merck Millipore) for 7 days, and 10 μM RO-3306 (Selleckchem) for 18 h. […] For fluorescence-activated cell sorting, cells were trypsinized and pelleted by centrifugation at 500 g at 4° C. for 5 min. Cell pellets were either left untreated for viability assays or fixed in 70% ethanol at −20° C. for 30 min and treated with 25 μg/ml RNaseA (Sigma-Aldrich) in 1×PBS at 37° C. for 20 min. Cells were then washed in 1×PBS and stained with 20 μg/ml propidium iodide (Sigma-Aldrich) in 1×PBS at 4° C. for 10 min. Flow cytometry was performed on a BD FACSCalibur or a BD Accuri C6 (BD Biosciences). Data were analyzed using FlowJo software.

FANCM-BTR complex = biological target: T1, FANCM-BTR complex (Homo sapiens, UniProt Q96E14+Q9H9A7); assay: Flag-FANCM immunoprecipitation of the FANCM-BTR complex with MM2 peptides added to cellular lysates; format: binding; settings: peptide 1-50 μM, lysates of HEK-293 cells expressing Flag-FANCM
T1 construct: expressed in transfected cells; host or cells: HEK-293
T1 sequence (Q9H9A7 1-625): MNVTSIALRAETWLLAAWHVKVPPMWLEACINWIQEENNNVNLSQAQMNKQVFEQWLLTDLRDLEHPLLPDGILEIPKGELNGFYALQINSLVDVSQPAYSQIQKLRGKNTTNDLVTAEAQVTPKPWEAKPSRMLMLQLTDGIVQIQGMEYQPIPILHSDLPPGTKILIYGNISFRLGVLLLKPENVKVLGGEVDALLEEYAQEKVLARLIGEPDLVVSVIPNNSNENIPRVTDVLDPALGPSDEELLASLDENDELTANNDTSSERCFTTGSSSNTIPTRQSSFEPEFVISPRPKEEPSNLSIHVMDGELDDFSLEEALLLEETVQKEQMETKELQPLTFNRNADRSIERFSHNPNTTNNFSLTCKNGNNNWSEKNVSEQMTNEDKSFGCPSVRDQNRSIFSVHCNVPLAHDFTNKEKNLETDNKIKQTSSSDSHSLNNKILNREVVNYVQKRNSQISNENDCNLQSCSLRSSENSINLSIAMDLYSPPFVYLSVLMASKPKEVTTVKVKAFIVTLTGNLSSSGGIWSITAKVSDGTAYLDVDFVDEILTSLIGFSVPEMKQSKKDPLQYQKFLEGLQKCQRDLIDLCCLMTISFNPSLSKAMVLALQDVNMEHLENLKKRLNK
T1 sequence (Q96E14 2-147 limits assumed): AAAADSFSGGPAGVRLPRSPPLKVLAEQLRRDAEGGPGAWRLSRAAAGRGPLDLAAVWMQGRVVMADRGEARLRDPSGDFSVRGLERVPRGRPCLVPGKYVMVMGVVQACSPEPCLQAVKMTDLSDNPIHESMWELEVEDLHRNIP
T1 sequence (Q13472 1-1001 partner): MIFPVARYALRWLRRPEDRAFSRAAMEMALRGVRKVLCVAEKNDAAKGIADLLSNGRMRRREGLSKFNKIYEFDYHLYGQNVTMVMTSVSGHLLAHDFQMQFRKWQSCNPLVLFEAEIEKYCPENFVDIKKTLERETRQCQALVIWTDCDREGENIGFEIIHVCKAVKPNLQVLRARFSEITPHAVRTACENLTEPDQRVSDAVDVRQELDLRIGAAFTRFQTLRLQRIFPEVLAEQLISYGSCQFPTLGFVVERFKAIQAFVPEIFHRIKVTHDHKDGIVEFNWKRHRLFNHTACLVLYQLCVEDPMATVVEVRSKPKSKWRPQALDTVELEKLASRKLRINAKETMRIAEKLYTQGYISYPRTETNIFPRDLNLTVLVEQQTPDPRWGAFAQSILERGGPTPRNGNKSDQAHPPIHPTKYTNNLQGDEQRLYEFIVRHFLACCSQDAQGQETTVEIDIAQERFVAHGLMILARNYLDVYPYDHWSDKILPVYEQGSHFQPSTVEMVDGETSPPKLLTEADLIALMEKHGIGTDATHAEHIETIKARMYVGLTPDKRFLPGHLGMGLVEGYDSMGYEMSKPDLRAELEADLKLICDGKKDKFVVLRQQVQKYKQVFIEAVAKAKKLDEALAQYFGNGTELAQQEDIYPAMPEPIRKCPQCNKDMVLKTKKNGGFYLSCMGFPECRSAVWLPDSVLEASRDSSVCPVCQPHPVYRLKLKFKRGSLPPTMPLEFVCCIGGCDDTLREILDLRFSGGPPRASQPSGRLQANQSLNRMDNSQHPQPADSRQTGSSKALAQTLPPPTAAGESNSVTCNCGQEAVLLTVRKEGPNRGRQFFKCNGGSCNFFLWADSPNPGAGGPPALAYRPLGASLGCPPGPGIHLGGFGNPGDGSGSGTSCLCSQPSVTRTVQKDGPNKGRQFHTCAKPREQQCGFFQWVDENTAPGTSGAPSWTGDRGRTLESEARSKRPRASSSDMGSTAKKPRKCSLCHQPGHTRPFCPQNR
Source text: FIG. 10. Characterization of the MM2-ER fusion protein. (a) Schematic showing competitive inhibition of FANCM-BTR complex formation by the MM2 peptide. […] (c) Representative mitotic spreads showing sister-chromatid exchanges (SCEs) in U-2 OS cells expressing MM2-ER or FF>AA-ER mutant fusion proteins in the presence or absence of 40HT (left panel). Quantitation of SCEs (right panel). (d) Representative mitotic spreads showing sister-chromatid exchanges (SCEs) in HeLa cells expressing MM2-ER or FF>AA-ER mutant fusion proteins in the presence or absence of 40HT (left panel). Quantitation of SCEs (right panel). SCEs are indicated by black arrows. For c and d, scatterplot bars represent the mean±SEM number of SCEs from 15-30 mitotic spreads, *p<0.05, **p<0.005, Mann-Whitney test. NB: The frequency of double labelled mitoses in MM2-ER+4OHT samples was approximately 10% of that in the controls, likely due to significant cell cycle delays introduced by activation of the MM2-inhibitor. As thus, SCE levels are likely underestimated in this experiment.
For co-IP experiments involved the ER-inducible system, cells were lysed in IP buffer (20 mM Tris-HCl pH 7.5, 100 mM NaCl, 10% (v/v) glycerol, 0.5 mM EDTA, 1 mM DTT) supplemented with 1× mammalian protease inhibitor cocktail (Sigma Aldrich) and 50 U/ml Benzonase (Novagen) for 2 h at 4° C., with or without MM2 peptide variants (Mimotopes). Following lysis, NaCl concentration was increased to 250 mM, then the lysate cleared at 16,000×g for 15 mins. Supernatant was then mixed with 1 μg of α-FANCM (Abcam) or α-ER (Santa Cruz Biotechnology) and 20 μl protein G sepharose (GE Healthcare), or using α-Flag M2 agarose (Sigma Aldrich). Following 3 h of mixing at 4° C., beads were washed 4× with IP buffer, and 1× with 50 mM NH4(CO3)2, 0.5 mM EDTA, then eluted with 500 mM NH4OH (pH 11.0), 0.5 mM EDTA. Samples were then lyophilized and resuspended in 1×LDS loading buffer (Life Technologies) prior to immunoblotting.

U-2 OS ALT cells = assay: Metaphase-TIFs after FANCM knockdown with siRNA; format: cell-based, human; settings: compared to the scrambled control; siRNA 30 nM, 72 h
Source text: (a) Representative images of telomere (green) and γ-H2AX (red) colocalizations on metaphase spreads (meta-TIFs) in U-2 OS cells with or without FANCM depletion (left panel). Meta-TIFs are indicated by white arrows. Scale bars are 5 μm. Quantitation of TIFs (right panel). Scatterplot bars represent the mean±SEM. Out of 3 experiments, n≥81 metaphases scored per treatment, **p<0.005, Mann-Whitney test. (b) Native and denatured TRF analysis of U-2 OS cells with or without FANCM depletion. Colored arrows correspond to telomeric DNA species depicted in panel c. (c) Schematic of migration patterns for indicated telomeric species separated by two-dimensional gel electrophoresis (top panel). Two-dimensional TRF analysis of U-2 OS cells with or without FANCM depletion, hybridized under native and denatured conditions to detect the telomeric C-strand and G-strand (left and right panels). Colored arrows correspond to telomeric DNA species depicted in schematic. (d) Representative dot blot and quantitation of C-circle assays of U-2 OS cells with or without FANCM depletion. C-circle levels were normalized to the mean of scrambled control. Error bars represent the mean±SEM from n=3 experiments, *p<0.05, **p<0.005, Student's t-test. […] Out of 3 experiments, n≥150 cells scored per treatment, *p<0.05, **p<0.005, Mann-Whitney test. […]

Compound: C/C(=C\C(=O)Nc1ccccc1C(=O)O)c1ccc2ccccc2c1 [BIBR 1532]
- accumulation in G2/M (HeLa cells): did not accumulated in G2/M

Compound: MM2 peptide: chemically synthesized peptide (SEQ ID NO: 29) corresponding to the highly conserved 28 amino acids of the MM2 domain (EDIFDCSRDLFSVTFDLGFCSPDSDDEILEHTSD; wildtype FANCM MM2 peptide)
- FANCM-BTR complex formation (TOP3A binding) (FANCM-BTR complex): dose-dependent inhibition of FANCM-BTR complex formation
- FANCM-BTR complex formation (TOP3A binding) (FANCM-BTR complex; listed as MM2-WT): diminishes with increasing concentrations

- FANCM-BTR complex formation (TOP3A binding) (FANCM-BTR complex): unable to inhibit complex formation
Compound: MM2 peptide containing the FF>AA mutant: MM2 peptide containing the FF>AA mutant (SEQ ID NO: 30) that does not bind to BTR (EDIFDCSRDLFSVTADLGACSPDSDDEILEHTSD; mutated FANCM peptide) [reference compound]

Compound: siFANCM1: Silencer Select siRNA FANCM1 (s33619) (SEQ ID NO: 12) (GCUCGUUCUUUGAUUCAGA; listed as RNA, chemistry not given here)
- metaphase-TIFs (meta-TIFs) (U-2 OS ALT cells): significant increase in metaphase-TIFs
